Blank lines part the entries; values can stand above or below the molecule they belong to.
Columns and labels:
[1] = biological target: 4-1BB on engineered 4-1BB-expressing effector cells (luciferase reporter assay) (UniProt Q07011); test: cell-based or functional assay
[2] = biological target: 4-1BB on engineered 4-1BB-expressing effector cells (luciferase reporter assay) (UniProt Q07011 24-255, limits assumed); test: cell-based or functional assay
[3] = biological target: T1, recombinant mouse 4-1BB protein (mouse, UniProt P20334 24-187); test: ELISA, plates coated with recombinant 4-1BB, detection with goat α-human Fcγ-HRP
T1 sequence (looked up): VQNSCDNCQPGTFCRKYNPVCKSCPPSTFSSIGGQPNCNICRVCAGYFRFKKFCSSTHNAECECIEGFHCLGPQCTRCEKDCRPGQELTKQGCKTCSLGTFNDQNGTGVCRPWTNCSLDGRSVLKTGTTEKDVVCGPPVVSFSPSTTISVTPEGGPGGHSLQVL
Experimental: Cross-reactivity was assessed using ELISA. Briefly, plates were coated with recombinant 4-1BB proteins derived from either human, cynomolgus monkey, or mouse. Plates were then washed, blocked, and incubated with bovine serum albumin (BSA), along with a series of known concentrations of α-4-1BB IgGs/MBs. The plate was then washed and incubated with a Goat α-human Fcy-HRP secondary antibody to detect bound IgG/MB. The plates were then washed again and developed with TMB substrate to detect HRP and read at OD 450 nm.

B2: effector silent α-4-1BB (AG10058; Fab #3) MB (protein, part only; not given: Fab constants, linkers, ferritin carriers, not shown: another chain or arm of the molecule; a dimerising Fc or GST; large carriers; small tags and cut ends)
VH: EVQLVESGGGLVQPGGSLRLSCAASGFSLSTSGVGVGWIRQAPGKGLEWLALIDWDDDKYYSPSLKSRLTISRDNSKNTLYLQLNSLRAEDTAVYYCARGGSDTVLGDWFAYWGQGTLVTVSS
VL: DIQLTQSPSSLSASVGDRVTITCRASQSVSPYLAWYQQKPGKAPKLLIYDASSLESGVPSRFSGSGSGTDFTLTISSLQPEDFATYYCQQGYSLWTFGQGTKVEIK
modifications: Self-assembled ferritin nanocage (Multabody) made from scFab-hFTL, scFab-N_hFTL and scFc(LLRAL)-C_hFTL fusions, with genes mixed 2:1:1. The letters do not carry this multivalent display.
- EC50 (nM) + Fc (4-1BB agonism, luciferase reporter, with FcγRIIb CHO-K1 cells) [1]: 0.019 nM
- EC50 (nM) - Fc (4-1BB agonism, luciferase reporter, without Fc crosslinking) [1]: 0.02 nM

B3: AG10058 IgG (IgG4; parent IgG of Fab #3) (antibody, V domains shown)
VH: B2 VH
VL: B2 VL
notes: also called Fab #3 IgG
- EC50 (nM) + Fc (4-1BB agonism, luciferase reporter, with FcγRIIb CHO-K1 cells) [2]: 0.346 nM
- binding result [3]: binds

B4: Urelumab IgG4 (antibody, V domains shown)
VH: QVQLQQWGAGLLKPSETLSLTCAVYGGSFSGYYWSWIRQSPEKGLEWIGEINHGGYVTYNPSLESRVTISVDTSKNQFSLKLSSVTAADTAVYYCARDYGPGNYDWYFDLWGRGTLVTVSS
VL: EIVLTQSPATLSLSPGERATLSCRASQSVSSYLAWYQQKPGQAPRLLIYDASNRATGIPARFSGSGSGTDFTLTISSLEPEDFAVYYCQQRSNWPPALTFGGGTKVEIK
- EC50 (nM) + Fc (4-1BB agonism, luciferase reporter, with FcγRIIb CHO-K1 cells) [2]: 0.25 nM
- EC50 (nM) - Fc (4-1BB agonism, luciferase reporter, without Fc crosslinking) [2]: 0.442 nM

Next, values leading:

- EC50 (nM) + Fc (4-1BB agonism, luciferase reporter, with FcγRIIb CHO-K1 cells) [1]: 0.079 nM
- EC50 (nM) - Fc (4-1BB agonism, luciferase reporter, without Fc crosslinking) [1]: 0.087 nM
Molecule: Urelumab MB (effector-silent α-4-1BB Multabody displaying scFabs based on urelumab)

- EC50 (nM) + Fc (4-1BB agonism, luciferase reporter, with FcγRIIb CHO-K1 cells) [2]: 0.258 nM
B1: NM21 IgG1 (parent IgG of Fab #1) (antibody, V domains shown)
VH: EVQLVESGGGLVQPGGSLRLSCAASGFSFSANYYPCWVRQAPGKGLEWIGCIYGGSSDITYDANWTKGRFTISRDNSKNTVYLQMNSLRAEDTAVYYCARSAWYSGWGGDLWGQGTLVTVSS
VL: DIQMTQSPSSLSASVGDRVTITCQASQSISNRLAWYQQKPGKAPKLLIYSASTLASGVPSRFSGSGSGTDFTLTISSLQPEDFATYYCQSTYYGNDGNAFGTGTKVTVLG

Source: patent US20260209370A1 (RADIANT BIOTHERAPEUTICS, published 2026)
